Source: US20200262877A1, “ION CHANNEL-BINDING PEPTIDES AND METHODS OF USE THEREOF” (priority 2017, published 2020)

Columns and labels:
TRPV1 = biological target: T1, TRPV1 (Homo sapiens, UniProt Q8NER1); experiment: Ion channel panel (IonWorks Barracuda): TRPV1; format: cell-based; conditions: 100% = no change, <100% = inhibition
T1 construct: host or cells: HEK293 or CHO
Summary of the method: (§1)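 Peptides were tested in duplicate at final 20 μM and 200 nM, with concentration set by amino acid analysis, in HEPES-buffered saline. They were applied for at least 5 min to HEK293 or CHO cells transfected with each channel. Currents were expressed as % inhibition, 1-(Ipeptide/Icontrol)×100, or % activation, Ipeptide/Icontrol×100, against a channel-matched reference compound.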

5HT3a = biological target: T2, 5HT3a (Homo sapiens, UniProt P46098); experiment: Ion channel panel (IonWorks Barracuda): 5HT3a; format: cell-based
T2 construct: host or cells: HEK293 or CHO
T2 sequence (P46098 whole entry, looked up): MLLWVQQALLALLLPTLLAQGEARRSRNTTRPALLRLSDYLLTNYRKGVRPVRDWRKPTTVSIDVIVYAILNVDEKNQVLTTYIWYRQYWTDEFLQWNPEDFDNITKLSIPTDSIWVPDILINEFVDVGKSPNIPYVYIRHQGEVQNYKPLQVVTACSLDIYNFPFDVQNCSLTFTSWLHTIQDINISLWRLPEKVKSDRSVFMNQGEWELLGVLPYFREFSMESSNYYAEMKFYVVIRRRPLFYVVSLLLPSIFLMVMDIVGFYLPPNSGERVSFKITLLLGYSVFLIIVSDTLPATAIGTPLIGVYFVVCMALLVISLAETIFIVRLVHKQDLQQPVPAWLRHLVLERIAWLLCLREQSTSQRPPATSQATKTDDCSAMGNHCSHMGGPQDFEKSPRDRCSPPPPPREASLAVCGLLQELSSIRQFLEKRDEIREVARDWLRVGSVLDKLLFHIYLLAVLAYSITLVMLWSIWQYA
Summary of the method: as §1

TRPA1 = biological target: T3, TRPA1 (Homo sapiens, UniProt O75762); experiment: Ion channel panel (IonWorks Barracuda): TRPA1; format: cell-based; conditions: 100% = no change, <100% = inhibition
T3 construct: host or cells: HEK293 or CHO
Summary of the method: as §1

Nav1.7 = biological target: T4, Nav1.7 (Homo sapiens, UniProt Q15858); experiment: cell-based; format: cell-based; conditions: 100% = no change; for Activity of Nav1.7 with peptide, expressed as a percentage of the reference compound: peptide at 0.2 μM; for Activity of Nav1.7 with peptide (percentage of the reference compound): peptide at 20 μM
T4 construct: host or cells: HEK293 or CHO
T4 sequence (Q15858 whole entry): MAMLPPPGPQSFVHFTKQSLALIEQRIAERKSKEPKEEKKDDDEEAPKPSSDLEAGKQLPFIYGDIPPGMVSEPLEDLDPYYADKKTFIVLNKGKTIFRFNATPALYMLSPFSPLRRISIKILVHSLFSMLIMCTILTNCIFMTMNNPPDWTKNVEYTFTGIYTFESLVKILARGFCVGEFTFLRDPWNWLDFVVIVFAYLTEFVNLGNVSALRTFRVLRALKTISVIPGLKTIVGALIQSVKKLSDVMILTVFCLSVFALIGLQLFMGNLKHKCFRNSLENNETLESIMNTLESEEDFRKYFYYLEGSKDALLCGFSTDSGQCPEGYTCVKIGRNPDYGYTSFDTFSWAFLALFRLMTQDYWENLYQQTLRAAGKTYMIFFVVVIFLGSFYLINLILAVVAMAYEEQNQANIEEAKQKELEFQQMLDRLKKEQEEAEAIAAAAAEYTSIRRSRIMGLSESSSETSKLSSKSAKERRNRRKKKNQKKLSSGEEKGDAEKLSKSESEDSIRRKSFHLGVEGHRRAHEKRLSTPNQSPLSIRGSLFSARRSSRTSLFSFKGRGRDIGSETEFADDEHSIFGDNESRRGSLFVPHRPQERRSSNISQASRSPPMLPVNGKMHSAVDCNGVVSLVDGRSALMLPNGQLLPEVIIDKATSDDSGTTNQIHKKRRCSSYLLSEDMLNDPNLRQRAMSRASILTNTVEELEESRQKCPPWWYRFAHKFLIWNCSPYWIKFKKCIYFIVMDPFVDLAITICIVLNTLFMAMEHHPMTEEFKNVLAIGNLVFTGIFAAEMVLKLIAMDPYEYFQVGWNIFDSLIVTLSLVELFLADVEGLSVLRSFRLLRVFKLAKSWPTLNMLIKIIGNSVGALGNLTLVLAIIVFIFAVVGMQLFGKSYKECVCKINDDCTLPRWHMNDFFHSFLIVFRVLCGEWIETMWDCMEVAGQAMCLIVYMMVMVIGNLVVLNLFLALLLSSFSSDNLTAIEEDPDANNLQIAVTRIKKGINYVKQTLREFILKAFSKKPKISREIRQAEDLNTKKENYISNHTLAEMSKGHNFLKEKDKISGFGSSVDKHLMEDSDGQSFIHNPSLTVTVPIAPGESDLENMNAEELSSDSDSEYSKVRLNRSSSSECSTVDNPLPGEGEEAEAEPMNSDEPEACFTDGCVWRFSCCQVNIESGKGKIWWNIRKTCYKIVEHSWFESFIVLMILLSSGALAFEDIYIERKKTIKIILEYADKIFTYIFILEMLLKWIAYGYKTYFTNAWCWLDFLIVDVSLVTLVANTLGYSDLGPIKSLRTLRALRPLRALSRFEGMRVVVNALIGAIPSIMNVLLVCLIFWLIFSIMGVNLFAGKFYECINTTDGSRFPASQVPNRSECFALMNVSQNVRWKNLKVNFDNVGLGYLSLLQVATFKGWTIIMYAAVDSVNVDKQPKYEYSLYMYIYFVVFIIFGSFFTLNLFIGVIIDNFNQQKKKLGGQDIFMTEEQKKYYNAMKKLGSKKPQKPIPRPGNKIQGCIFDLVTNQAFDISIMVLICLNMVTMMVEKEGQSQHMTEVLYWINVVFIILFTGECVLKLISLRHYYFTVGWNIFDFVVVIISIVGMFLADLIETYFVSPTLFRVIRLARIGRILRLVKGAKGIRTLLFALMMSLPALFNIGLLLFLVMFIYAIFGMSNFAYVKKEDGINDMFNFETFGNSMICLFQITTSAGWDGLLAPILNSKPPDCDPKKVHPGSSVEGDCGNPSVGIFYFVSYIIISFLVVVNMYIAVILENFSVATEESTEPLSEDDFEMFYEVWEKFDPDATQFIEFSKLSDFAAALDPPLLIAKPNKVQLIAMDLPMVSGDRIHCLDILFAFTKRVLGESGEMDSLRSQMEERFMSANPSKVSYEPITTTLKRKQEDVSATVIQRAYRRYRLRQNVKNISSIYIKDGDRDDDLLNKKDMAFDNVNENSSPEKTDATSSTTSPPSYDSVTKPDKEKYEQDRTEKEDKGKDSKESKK

NR2A = biological target: T5, NR2A (Homo sapiens, UniProt Q12879); experiment: Ion channel panel (IonWorks Barracuda): NR2A; format: cell-based; conditions: 100% = no change, <100% = inhibition
T5 construct: host or cells: HEK293 or CHO
Summary of the method: as §1

Kir2.1 = biological target: T6, Kir2.1 (Homo sapiens, UniProt P63252); experiment: Ion channel panel (IonWorks Barracuda): Kir2.1; format: cell-based; conditions: 100% = no change, <100% = inhibition
T6 construct: host or cells: HEK293 or CHO
Summary of the method: as §1

GABA = experiment: Ion channel panel (IonWorks Barracuda): GABA; format: cell-based; conditions: 100% = no change, <100% = inhibition
Summary of the method: as §1

α3β4 = biological target: T7, α3β4 (Homo sapiens, UniProt P30926+P32297); experiment: Ion channel panel (IonWorks Barracuda): α3β4; format: cell-based; conditions: 100% = no change, <100% = inhibition
T7 construct: host or cells: HEK293 or CHO
Summary of the method: as §1

Cav2.2 = biological target: T8, Cav2.2 (Homo sapiens, UniProt Q00975); experiment: cell-based; conditions: 100% = no change, <100% = inhibition
T8 construct: host or cells: HEK293 or CHO
Summary of the method: as §1

Kv2.1 = biological target: T9, Kv2.1 (Homo sapiens, UniProt Q14721); experiment: cell-based; conditions: 100% = no change, <100% = inhibition
T9 construct: host or cells: HEK293 or CHO
Summary of the method: as §1

Cav2.1 = biological target: T10, Cav2.1 (Homo sapiens, UniProt O00555); experiment: cell-based; conditions: 100% = no change, <100% = inhibition
T10 construct: host or cells: HEK293 or CHO
Summary of the method: as §1

α4β2 = biological target: T11, α4β2 (Homo sapiens, UniProt P17787+P43681); experiment: Ion channel panel (IonWorks Barracuda): α4β2; format: cell-based; conditions: 100% = no change, <100% = inhibition
T11 construct: host or cells: HEK293 or CHO
Summary of the method: as §1

Nav1.5 = Nav1.5 (Homo sapiens, UniProt Q14524); experiment: in vitro; conditions: 100% = no change; for Activity of Nav1.5 with peptide, expressed as a percentage of the reference compound: peptide at 0.2 μM; for Activity of Nav1.5 with peptide (percentage of the reference compound): peptide at 20 μM
Chain of Nav1.5 (Q14524 whole entry): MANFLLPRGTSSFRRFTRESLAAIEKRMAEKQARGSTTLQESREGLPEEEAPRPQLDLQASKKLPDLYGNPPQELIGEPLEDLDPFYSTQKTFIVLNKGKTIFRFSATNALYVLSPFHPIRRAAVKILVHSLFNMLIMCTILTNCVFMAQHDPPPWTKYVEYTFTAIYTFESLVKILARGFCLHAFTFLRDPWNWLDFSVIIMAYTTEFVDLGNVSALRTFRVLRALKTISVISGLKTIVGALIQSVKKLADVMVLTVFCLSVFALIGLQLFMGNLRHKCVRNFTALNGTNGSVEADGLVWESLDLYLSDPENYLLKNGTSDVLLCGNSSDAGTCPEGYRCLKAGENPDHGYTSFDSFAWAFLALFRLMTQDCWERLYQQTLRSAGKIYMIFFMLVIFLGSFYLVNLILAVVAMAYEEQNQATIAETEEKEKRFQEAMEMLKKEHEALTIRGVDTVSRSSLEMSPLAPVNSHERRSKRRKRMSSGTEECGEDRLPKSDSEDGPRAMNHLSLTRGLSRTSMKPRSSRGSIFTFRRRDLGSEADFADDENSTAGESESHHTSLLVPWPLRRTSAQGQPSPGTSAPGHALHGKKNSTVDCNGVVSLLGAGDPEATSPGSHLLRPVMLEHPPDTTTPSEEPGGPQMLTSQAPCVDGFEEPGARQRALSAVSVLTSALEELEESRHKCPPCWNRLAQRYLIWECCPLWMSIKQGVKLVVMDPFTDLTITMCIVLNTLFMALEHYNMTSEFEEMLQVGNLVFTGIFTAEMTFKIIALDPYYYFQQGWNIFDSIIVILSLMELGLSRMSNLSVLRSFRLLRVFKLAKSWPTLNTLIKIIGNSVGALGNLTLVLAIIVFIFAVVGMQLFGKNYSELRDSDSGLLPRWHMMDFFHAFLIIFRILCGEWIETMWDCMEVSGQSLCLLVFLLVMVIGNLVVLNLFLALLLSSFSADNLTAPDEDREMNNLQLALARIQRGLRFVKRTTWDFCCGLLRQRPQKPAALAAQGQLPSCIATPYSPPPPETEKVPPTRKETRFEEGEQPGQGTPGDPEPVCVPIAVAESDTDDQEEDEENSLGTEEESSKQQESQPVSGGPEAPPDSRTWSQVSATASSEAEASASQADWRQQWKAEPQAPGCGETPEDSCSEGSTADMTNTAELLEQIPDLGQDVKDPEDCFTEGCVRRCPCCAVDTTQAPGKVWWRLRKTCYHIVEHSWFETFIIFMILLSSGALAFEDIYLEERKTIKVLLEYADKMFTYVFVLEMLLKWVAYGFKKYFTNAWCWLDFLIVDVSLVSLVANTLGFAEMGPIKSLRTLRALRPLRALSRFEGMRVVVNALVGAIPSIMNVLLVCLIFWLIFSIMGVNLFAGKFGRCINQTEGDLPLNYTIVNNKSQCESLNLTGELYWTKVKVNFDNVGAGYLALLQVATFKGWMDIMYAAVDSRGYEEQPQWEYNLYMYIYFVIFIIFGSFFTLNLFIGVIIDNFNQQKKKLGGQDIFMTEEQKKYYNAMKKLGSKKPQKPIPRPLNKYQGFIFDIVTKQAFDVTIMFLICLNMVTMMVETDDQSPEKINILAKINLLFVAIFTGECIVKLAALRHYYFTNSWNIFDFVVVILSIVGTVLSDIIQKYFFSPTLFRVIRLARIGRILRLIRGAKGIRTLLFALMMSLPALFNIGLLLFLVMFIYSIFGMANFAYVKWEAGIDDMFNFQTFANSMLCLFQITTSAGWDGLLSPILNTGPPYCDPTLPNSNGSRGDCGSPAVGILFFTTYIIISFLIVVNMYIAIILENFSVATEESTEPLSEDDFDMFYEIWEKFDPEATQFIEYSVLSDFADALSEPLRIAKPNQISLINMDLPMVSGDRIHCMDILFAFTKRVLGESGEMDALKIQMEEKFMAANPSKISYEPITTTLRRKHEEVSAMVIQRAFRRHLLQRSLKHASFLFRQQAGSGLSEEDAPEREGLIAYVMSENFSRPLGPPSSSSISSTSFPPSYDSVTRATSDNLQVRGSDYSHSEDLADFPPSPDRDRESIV
Summary of the method: as §1

hERG = hERG (Homo sapiens, UniProt Q12809); experiment: in vitro; conditions: 100% = no change, <100% = inhibition
Chain of hERG (Q12809 whole entry): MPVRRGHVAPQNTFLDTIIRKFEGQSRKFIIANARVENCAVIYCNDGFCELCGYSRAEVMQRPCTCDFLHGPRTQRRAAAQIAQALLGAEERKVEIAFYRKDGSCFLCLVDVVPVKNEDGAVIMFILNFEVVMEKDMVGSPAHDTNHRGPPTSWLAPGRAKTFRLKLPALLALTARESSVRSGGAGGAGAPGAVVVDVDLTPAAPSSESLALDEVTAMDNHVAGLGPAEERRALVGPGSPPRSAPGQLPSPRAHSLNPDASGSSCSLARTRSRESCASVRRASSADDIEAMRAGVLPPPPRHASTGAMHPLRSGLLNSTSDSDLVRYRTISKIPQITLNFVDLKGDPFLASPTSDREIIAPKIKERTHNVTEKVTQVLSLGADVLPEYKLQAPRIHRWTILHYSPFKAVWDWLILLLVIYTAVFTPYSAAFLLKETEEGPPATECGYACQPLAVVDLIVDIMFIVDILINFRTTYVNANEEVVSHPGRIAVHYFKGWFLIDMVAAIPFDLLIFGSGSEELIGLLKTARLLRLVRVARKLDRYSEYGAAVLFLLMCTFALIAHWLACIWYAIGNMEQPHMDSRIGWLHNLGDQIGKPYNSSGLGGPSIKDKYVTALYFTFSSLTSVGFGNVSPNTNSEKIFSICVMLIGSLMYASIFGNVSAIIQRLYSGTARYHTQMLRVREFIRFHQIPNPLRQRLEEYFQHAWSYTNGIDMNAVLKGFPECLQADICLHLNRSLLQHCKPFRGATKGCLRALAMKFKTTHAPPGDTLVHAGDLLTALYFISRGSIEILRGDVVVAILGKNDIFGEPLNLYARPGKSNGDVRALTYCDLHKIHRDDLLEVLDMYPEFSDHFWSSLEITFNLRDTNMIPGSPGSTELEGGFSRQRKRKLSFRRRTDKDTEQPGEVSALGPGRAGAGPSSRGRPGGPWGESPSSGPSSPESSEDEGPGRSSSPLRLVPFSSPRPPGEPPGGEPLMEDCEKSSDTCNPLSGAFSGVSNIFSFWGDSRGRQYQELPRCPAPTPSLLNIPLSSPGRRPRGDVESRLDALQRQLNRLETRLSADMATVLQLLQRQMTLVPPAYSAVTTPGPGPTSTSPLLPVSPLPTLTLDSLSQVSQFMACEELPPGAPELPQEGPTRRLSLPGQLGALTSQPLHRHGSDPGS
Summary of the method: as §1

Kv1.1 = biological target: T12, Kv1.1 (Homo sapiens, UniProt Q09470); experiment: cell-based; format: cell-based; conditions: 100% = no change, <100% = inhibition
T12 construct: host or cells: HEK293 or CHO
Summary of the method: as §1

Kv1.2 = biological target: T13, Kv1.2 (Homo sapiens, UniProt P16389); experiment: cell-based; format: cell-based; conditions: 100% = no change, <100% = inhibition
T13 construct: host or cells: HEK293 or CHO
Summary of the method: as §1

Kv1.3 = biological target: T14, Kv1.3 (Homo sapiens, UniProt P22001); experiment: cell-based; format: cell-based; conditions: 100% = no change, <100% = inhibition
T14 construct: host or cells: HEK293 or CHO
Summary of the method: as §1

NR2B = biological target: T15, NR2B (Homo sapiens, UniProt Q13224); experiment: Ion channel panel (IonWorks Barracuda): NR2B; format: cell-based; conditions: 100% = no change, <100% = inhibition
T15 construct: host or cells: HEK293 or CHO
Summary of the method: as §1

[1] = first of two Nav1.7 columns (probably TP1)
[2] = second of two Nav1.7 columns (probably TP2)
[3] = first of two Nav1.5 columns (probably TP1)
[4] = second of two Nav1.5 columns (probably TP2)

With “19 (GSQFTDVKCTGSKQCWPVCKQMFGKPNGKCMNGKCRCYS) [compound 19]” the “Activity of TRPV1 with peptide, expressed as a percentage of the reference compound” value (TRPV1; peptide at 0.2 μM) was 94%, the “Activity of TRPV1 with peptide (percentage of the reference compound)” value (TRPV1; peptide at 20 μM) was 90% and the “Activity of 5HT3a with peptide (percentage of the reference compound)” value (5HT3a) was 69%. The “Activity of 5HT3a with peptide, expressed as a percentage of the reference compound” value (5HT3a) was 89%, the “Activity of TRPA1 with peptide, expressed as a percentage of the reference compound” value (TRPA1; peptide at 0.2 μM) was 126% and the “Activity of TRPA1 with peptide (percentage of the reference compound)” value (TRPA1; peptide at 20 μM) was 109%. For the same substance, the “Activity of Nav1.7 with peptide, expressed as a percentage of the reference compound” value (Nav1.7; [1]) was 91%, the “Activity of Nav1.7 with peptide, expressed as a percentage of the reference compound” value (Nav1.7; [2]) was 92% and the “Activity of Nav1.7 with peptide (percentage of the reference compound)” value (Nav1.7; [1]) was 121%. The “Activity of Nav1.7 with peptide (percentage of the reference compound)” value (Nav1.7; [2]) was 140%, the “Activity of NR2A with peptide, expressed as a percentage of the reference compound” value (NR2A; peptide at 0.2 μM) was 90% and the “Activity of NR2A with peptide (percentage of the reference compound)” value (NR2A; peptide at 20 μM) was 99%. The “Activity of Kir2.1 with peptide, expressed as a percentage of the reference compound” value (Kir2.1; peptide at 0.2 μM) was 107%, the “Activity of Kir2.1 with peptide (percentage of the reference compound)” value (Kir2.1; peptide at 20 μM) was 93% and the “Activity of GABA with peptide, expressed as a percentage of the reference compound” value (GABA; peptide at 0.2 μM) was 93%. The “Activity of GABA with peptide (percentage of the reference compound)” value (GABA; peptide at 20 μM) was 111%, the “Activity of a3b4 with peptide, expressed as a percentage of the reference compound” value (α3β4; peptide at 0.2 μM) was 101% and the “Activity of a3b4 with peptide (percentage of the reference compound)” value (α3β4; peptide at 20 μM) was 97%. For the same substance, the “Activity of Cav2.2 with peptide, expressed as a percentage of the reference compound” value (Cav2.2; peptide at 0.2 μM) was 116%, the “Activity of Cav2.2 with peptide (percentage of the reference compound)” value (Cav2.2; peptide at 20 μM) was 94% and the “Activity of Kv2.1 with peptide, expressed as a percentage of the reference compound” value (Kv2.1; peptide at 0.2 μM) was 95%. For the same substance, the “Activity of Kv2.1 with peptide (percentage of the reference compound)” value (Kv2.1; peptide at 20 μM) was 108%, the “Activity of Cav2.1 with peptide, expressed as a percentage of the reference compound” value (Cav2.1; peptide at 0.2 μM) was 106% and the “Activity of Cav2.1 with peptide (percentage of the reference compound)” value (Cav2.1; peptide at 20 μM) was 109%. For the same substance, the “Activity of a4b2 with peptide, expressed as a percentage of the reference compound” value (α4β2; peptide at 0.2 μM) was 99%, the “Activity of a4b2 with peptide (percentage of the reference compound)” value (α4β2; peptide at 20 μM) was 93% and the “Activity of Nav1.5 with peptide, expressed as a percentage of the reference compound” value (Nav1.5; [3]) was 112%. For the same substance, the “Activity of Nav1.5 with peptide, expressed as a percentage of the reference compound” value (Nav1.5; [4]) was 114%, the “Activity of Nav1.5 with peptide (percentage of the reference compound)” value (Nav1.5; [3]) was 117% and the “Activity of Nav1.5 with peptide (percentage of the reference compound)” value (Nav1.5; [4]) was 117%. The “Activity of hERG with peptide, expressed as a percentage of the reference compound” value (hERG; peptide at 0.2 μM) was 98%, the “Activity of hERG with peptide (percentage of the reference compound)” value (hERG; peptide at 20 μM) was 86% and the “Activity of Kv1.1 with peptide, expressed as a percentage of the reference compound” value (Kv1.1; peptide at 0.2 μM) was 100%. The “Activity of Kv1.1 with peptide (percentage of the reference compound)” value (Kv1.1; peptide at 20 μM) was 44%, the “Activity of Kv1.2 with peptide, expressed as a percentage of the reference compound” value (Kv1.2; peptide at 0.2 μM) was 41% and the “Activity of Kv1.2 with peptide (percentage of the reference compound)” value (Kv1.2; peptide at 20 μM) was 37%. The “Activity of Kv1.3 with peptide, expressed as a percentage of the reference compound” value (Kv1.3; peptide at 0.2 μM) was 4%, the “Activity of Kv1.3 with peptide (percentage of the reference compound)” value (Kv1.3; peptide at 20 μM) was −1% and the “Activity of NR2B with peptide, expressed as a percentage of the reference compound” value (NR2B; peptide at 0.2 μM) was 117%. The “Activity of NR2B with peptide (percentage of the reference compound)” value (NR2B; peptide at 20 μM) was 130%.
